Results on one molecule are retold here after patent US20160009813A1 (Memorial Sloan Kettering, published 2016).

In this test the target is T1, human CD19 (human, UniProt P15391 20-556).
T1 sequence (looked up): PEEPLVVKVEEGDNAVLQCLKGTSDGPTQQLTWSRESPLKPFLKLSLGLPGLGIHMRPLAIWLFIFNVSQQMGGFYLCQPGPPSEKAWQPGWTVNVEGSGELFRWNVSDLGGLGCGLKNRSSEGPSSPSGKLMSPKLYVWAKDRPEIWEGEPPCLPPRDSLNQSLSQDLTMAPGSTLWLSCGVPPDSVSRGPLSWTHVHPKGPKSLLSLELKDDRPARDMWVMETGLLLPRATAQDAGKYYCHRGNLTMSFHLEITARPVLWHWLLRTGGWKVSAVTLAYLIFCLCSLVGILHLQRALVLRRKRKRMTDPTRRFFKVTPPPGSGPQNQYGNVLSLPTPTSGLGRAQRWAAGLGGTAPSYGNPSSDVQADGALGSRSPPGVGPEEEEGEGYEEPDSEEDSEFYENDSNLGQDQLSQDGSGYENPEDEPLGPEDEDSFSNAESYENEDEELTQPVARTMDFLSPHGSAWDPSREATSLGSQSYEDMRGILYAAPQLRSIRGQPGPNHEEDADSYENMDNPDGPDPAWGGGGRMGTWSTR
In words: cell-based or functional assay.

B1: 1928z chimeric antigen receptor (CD19-specific second-generation CAR: SJ25C1-derived scFv, CD28, CD3 zeta) (receptor)
chain: EVKLQQSGAELVRPGSSVKISCKASGYAFSSYWMNWVKQRPGQGLEWIGQIYPGDGDTNYNGKFKGQATLTADKSSSTAYMQLSGLTSEDSAVYFCARKTISSVVDFYFDYWGQGTTVTVSSGGGGSGGGGSGGGGSDIELTQSPKFMSTSVGDRVSVTCKASQNVGTNVAWYQQKPGQSPKPLIYSATYRNSGVPDRFTGSGSGTDFTLTITNVQSKDLADYFCQQYNRYPYTSGGGTKLEIKRAAAIEVMYPPPYLDNEKSNGTIIHVKGKHLCPSPLFPGPSKPFWVLVVVGGVLACYSLLVTVAFIIFWVRSKRSRLLHSDYMNMTPRRPGPTRKHYQPYAPPRDFAAYRSRVKFSRSAEPPAYQQGQNQLYNELNLGRREEYDVLDKRRGRDPEMGGKPRRKNPQEGLYNELQKDKMAEAYSEIGMKGERRRGKGHDGLYQGLSTATKDTYDALHMQALPPR
With B1, the “expansion after one stimulation with 3T3-CD19 cells (mean)” value turned out to be 20 fold and the “expansion after three weekly stimulations with 3T3-CD19 cells” value is roughly 1000 fold.
